The results in this text go back to patent US20240400657A1 (MorphoSys, published 2024).

Test [1] concerns the target T1, engineered version of human C5aR expressed on CHO cells of the PathHunter β-arrestin assay (DiscoveRx) (human, UniProt P21730 1-350).
T1 sequence (looked up): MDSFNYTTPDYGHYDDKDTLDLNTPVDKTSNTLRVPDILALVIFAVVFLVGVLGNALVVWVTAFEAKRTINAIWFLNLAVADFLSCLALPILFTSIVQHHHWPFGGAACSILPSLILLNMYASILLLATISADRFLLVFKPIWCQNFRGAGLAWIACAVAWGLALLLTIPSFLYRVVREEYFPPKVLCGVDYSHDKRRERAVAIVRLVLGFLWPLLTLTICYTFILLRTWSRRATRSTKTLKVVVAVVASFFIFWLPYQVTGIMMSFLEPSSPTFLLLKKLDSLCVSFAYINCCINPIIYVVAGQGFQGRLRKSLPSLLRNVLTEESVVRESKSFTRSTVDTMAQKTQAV
Nature of the test: cell-based or functional assay.

For test [2], the target named is T2, HIS6-human C5aR (N/N variant)-HV1B1-GAG (human).
T2 construct: also called huC5aR (N/N); human C5aR N/N variant on VLPs
Nature of the test: ELISA on coated VLPs, IgG titration (N = 2). In general terms: In an ELISA, binding on a coated surface is turned into a signal by an enzyme label.

The target in test [3] is T3, HIS6-human C5aR (D/K variant)-HV1B1-GAG (human).
T3 construct: the VLPs were coated for ELISA; also called huC5aR (D/K); human C5aR D/K variant on VLPs
Nature of the test: ELISA on coated VLPs, IgG titration (N = 2).

Test [4] has as its target T4, Rat FcRn p51 [1-298]/AviHis/p14 biotinylated (rat, UniProt P13599 23-299; P07151 21-119, biotinylated in vitro with BirA (Avi tag)).
T4 construct: Heterodimer; UniProt P13599 (p51)
T4 sequence 1: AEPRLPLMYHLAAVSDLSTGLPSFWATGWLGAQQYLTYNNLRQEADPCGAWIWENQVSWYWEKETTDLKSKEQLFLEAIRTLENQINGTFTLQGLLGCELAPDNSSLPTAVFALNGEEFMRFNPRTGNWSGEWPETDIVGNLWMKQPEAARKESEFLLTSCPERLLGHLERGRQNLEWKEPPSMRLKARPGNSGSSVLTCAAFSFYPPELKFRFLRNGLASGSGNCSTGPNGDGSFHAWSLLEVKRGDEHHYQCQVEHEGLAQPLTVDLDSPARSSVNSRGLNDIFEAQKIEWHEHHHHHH
T4 sequence 2: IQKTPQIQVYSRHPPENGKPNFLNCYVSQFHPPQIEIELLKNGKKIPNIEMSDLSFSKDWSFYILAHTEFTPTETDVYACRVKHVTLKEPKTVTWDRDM
Nature of the test: BLI (Octet HTX), biotinylated FcRn on SA sensors, IgG titrated, steady state fit, apparent KD, pH 6.0.
Excerpt: (§1) 0.5 nm of biotinylated human, cynomolgus, mouse and rat FcRn were captured on streptavidin (SA) sensors (FortéBIO, Pall Life Sciences). […] All sensorgrams were fitted using Data Analysis Software 10.0 (FortéBIO, Pall Life Sciences) to determine the apparent affinity and the data was fitted with a steady state model.

The target in test [5] is T5, Mouse FcRn p51 [1-297]/AviHis/p14 biotinylated (mouse, UniProt Q61559 22-298; P01887 21-119, biotinylated in vitro with BirA (Avi tag)).
T5 construct: Heterodimer; UniProt Q61559 (p51); also called Murine FcRn
T5 chain 1: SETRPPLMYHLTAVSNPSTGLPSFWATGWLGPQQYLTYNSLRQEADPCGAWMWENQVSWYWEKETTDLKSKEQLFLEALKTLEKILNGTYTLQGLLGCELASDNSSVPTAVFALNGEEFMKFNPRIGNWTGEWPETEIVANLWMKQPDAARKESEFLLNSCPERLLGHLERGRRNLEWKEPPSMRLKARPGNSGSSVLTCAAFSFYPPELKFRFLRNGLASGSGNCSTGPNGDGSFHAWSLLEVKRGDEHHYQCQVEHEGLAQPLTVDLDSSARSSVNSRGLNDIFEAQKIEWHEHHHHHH
T5 chain 2: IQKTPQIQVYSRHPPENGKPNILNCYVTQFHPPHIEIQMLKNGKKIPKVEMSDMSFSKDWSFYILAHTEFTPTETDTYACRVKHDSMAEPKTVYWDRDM
The description is as above.
Excerpt: as §1

A further test has as its target T6, Human FcγRI (1-279)_HIS6 (human, UniProt P12314 16-280).
T6 construct: Extracellular region with C-terminal 6xHis tag; UniProt P12314 printed
Nature of the test: BLI (Octet), IgG captured on Protein A sensors, FcγR titrated. On the technique in general: Biolayer interferometry detects binding as a change in optical thickness at a sensor tip.

The target in test [6] is T7, Human FcγRIIa (1-209)-(131H)-HIS6 (human, UniProt P12318 34-209).
T7 construct: Extracellular region with C-terminal 6xHis tag; UniProt P12318 printed
T7 sequence: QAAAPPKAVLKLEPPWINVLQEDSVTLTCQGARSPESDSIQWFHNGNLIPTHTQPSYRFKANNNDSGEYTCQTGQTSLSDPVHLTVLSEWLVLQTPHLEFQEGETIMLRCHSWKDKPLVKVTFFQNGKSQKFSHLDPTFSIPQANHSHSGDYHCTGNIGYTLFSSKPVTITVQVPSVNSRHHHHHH
The test is described as above.
Description: (§2) 2.0 nm of IgGs diluted in Octet assay buffer (PBS, 0.05% (v/v) Tween-20, 0.1% (w/v) BSA) were captured on Protein A sensors (FortéBIO, Pall Life Sciences). Kinetic measurements were performed using 7 concentrations of Fc gamma receptors (2n serial dilution) in assay buffer. […] All sensorgrams were fitted using Data Analysis Software 10.0, (FortéBIO, Pall Life Sciences) to determine kₒₙ and koff rate constants, which were used to calculate KD. The raw data was fitted with a 1:1 binding model, with parameter Rₘₐₓ set to local.

The target in test [7] is T8, Human FcγRIIa (1-209)-(131R)-HIS6 (human, UniProt P12318 34-209).
T8 construct: Extracellular region with C-terminal 6xHis tag; UniProt P12318 printed
T8 chain: T7 sequence with H134R
The description is as above.
Description: as §2

The target in test [8] is T9, Human FcγRIIB (1-202)-HIS6 (human, UniProt P31994 43-217).
T9 construct: Extracellular region with C-terminal 6xHis tag; UniProt P31994 printed
T9 sequence: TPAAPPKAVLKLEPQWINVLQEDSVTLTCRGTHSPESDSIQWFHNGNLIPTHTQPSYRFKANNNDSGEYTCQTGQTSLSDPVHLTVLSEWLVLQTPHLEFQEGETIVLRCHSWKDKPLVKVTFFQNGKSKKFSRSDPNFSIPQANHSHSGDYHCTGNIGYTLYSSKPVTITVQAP
Described as above.
Description: as §2

Test [9] addresses T10, human C5aR_NT-bio peptide (human, biotin tag (position not given)).
T10 construct: Chemically synthesized linear peptide (Genscript); also called human C5aR N-terminal peptide; human C5aR peptide
T10 peptide: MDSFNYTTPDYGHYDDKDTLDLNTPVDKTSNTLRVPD
As to the kind of experiment: SPR (Biacore T200), IgG captured on anti-human-Fc, peptide as analyte, 1:1 fit, monovalent. (In general: In SPR one partner is held on a chip, and binding of the other changes the refractive index at the surface.)

Positions count from the first letter of the chain named.

T6 sequence (P12314 other isoform, or with tags, fused parts or gaps): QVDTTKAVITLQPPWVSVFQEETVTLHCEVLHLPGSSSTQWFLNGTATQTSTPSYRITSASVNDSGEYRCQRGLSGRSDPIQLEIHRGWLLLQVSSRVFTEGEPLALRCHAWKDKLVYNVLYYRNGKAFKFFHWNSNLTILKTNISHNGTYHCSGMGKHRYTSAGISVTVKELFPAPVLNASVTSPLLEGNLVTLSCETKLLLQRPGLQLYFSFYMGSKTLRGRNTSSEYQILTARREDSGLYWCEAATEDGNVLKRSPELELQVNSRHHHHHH
Description for Human FcγRI (1-279)_HIS6: as §2

B1: MAB #2 (antibody, human IgG1, lambda)
heavy: EVQLVESGGGLVKPGGSLRLSCAASGFTFSSYAMHWVRQAPGKGLEWVGRIKSVAQGGTTDYAAHVKGRFTISRDDSKNTLYLQMNSLKTEDTAVYYCARVSHSTFDVWGQGTLVTVSSASTKGPSVFPLAPSSKSTSGGTAALGCLVKDYFPEPVTVSWNSGALTSGVHTFPAVLQSSGLYSLSSVVTVPSSSLGTQTYICNVNHKPSNTKVDKRVEPKSCDKTHTCPPCPAPEAEGAPSVFLFPPKPKDTLMISRTPEVTCVVVDVSHEDPEVKFNWYVDGVEVHNAKTKPREEQYNSTYRVVSVLTVLHQDWLNGKEYKCKVSNKALPSSIEKTISKAKGQPREPQVYTLPPSREEMTKNQVSLTCLVKGFYPSDIAVEWESNGQPENNYKTTPPVLDSDGSFFLYSKLTVDKSRWQQGNVFSCSVMHEALHNHYTQKSLSLSPGK
light: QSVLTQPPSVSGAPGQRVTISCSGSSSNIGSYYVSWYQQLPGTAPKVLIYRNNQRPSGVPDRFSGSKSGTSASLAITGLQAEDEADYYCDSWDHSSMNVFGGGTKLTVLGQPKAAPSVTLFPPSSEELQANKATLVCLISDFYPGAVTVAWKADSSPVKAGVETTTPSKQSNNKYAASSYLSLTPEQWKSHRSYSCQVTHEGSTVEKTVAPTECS
notes: lambda 1 light chain
Take B1: the “Activity of human C5a EC50 (nM) in presence of 50 nM anti-C5aR antibody, β-arrestin recruitment” value in test [1] stood at 37 nM. In addition, the “x fold reduced activity of C5a in presence of anti-C5aR antibody (50 nM)” value in test [1] was found to be 12.8 fold. The 50% effective concentration (EC50) in test [2] and in test [3] was 0.5 nM in each case. Further, the Kd is 10 nM in test [4], 7.3 nM in test [5] and 29 nM in test [9]. The binding result in the test with Human FcγRI (1-279)_HIS6 is reported as “no binding”; in test [6], “no binding”; in test [7], “binds”; in test [8] it was “no binding”. In addition, in test [9], the off-rate constant (koff) (as a rule, a measure of how fast the partners let go of each other) came out at 0.00127 s⁻¹. Further, the association rate constant (kon) (as a rule, the rate constant with which the complex forms) in [9] is 43300 M⁻¹ s⁻¹.

B2: MAB #1 (antibody, human IgG1, lambda)
heavy: B1 heavy with V54K, H103F
light: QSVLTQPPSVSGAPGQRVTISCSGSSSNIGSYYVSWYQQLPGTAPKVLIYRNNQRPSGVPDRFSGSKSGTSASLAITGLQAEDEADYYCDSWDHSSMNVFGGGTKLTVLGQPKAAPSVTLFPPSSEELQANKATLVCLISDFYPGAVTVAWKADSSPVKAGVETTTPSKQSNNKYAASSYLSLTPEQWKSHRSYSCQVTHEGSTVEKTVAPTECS
notes: lambda 1 light chain, VH3-15 framework
On to B2, for which the “Activity of human C5a EC50 (nM) in presence of 50 nM anti-C5aR antibody, β-arrestin recruitment” value in test [1] came out at 37 nM. For the same molecule, the “x fold reduced activity of C5a in presence of anti-C5aR antibody (50 nM)” value in test [1] worked out at 12.8 fold. Further, the concentration giving a half-maximal response (EC50) in [2] and in test [3] was 0.5 nM throughout. In addition, the Kd in test [4] worked out at 5.7 nM; in [5], 4.3 nM; in [9] it was 36 nM. Besides, the binding result was “no binding” with Human FcγRI (1-279)_HIS6, “no binding” in test [6], “binds” in [7] and “no binding” in test [8]. The same molecule had a koff in test [9] of 0.00179 s⁻¹. The molecule also yielded an association rate constant (kon) in [9] of 50100 M⁻¹ s⁻¹.
